Publication PMC5491494

Molecular target: hnRNPA1, endogenous, P09651
Assay: cross-linking; DSG cross-linking, sample not named in the text (Supplementary Fig. 2a); nucleo-cytoplasmic fractionation; immunoblot, 4–12% denaturing polyacrylamide gels
Details: remark: other sources report otherwise

stoichiometry N: 2
B1: hnRNPA1, endogenous, P09651 1-372 (natural protein)
chain: MSKSESPKEPEQLRKLFIGGLSFETTDESLRSHFEQWGTLTDCVVMRDPNTKRSRGFGFVTYATVEEVDAAMNARPHKVDGRVVEPKRAVSREDSQRPGAHLTVKKIFVGGIKEDTEEHHLRDYFEQYGKIEVIEIMTDRGSGKKRGFAFVTFDDHDSVDKIVIQKYHTVNGHNCEVRKALSKQEMASASSSQRGRSGSGNFGGGRGGGFGGNDNFGRGGNFSGRGGFGGSRGGGGYGGSGDGYNGFGNDGGYGGGGPGYSGGSRGYGSGGQGYGNQGSGYGGSGSYDSYNNGGGGGFGGGSGSNFGGGGSYNDFGNYNNQSSNFGPMKGGNFGGRSSGPYGGGGQYFAKPRNQGGYGGSSSSSSYGSGRRF
